Test [1] concerns the target T1, neuroendocrine protein Discs Large 3 (NE-dlg, DLG3) amino acids 94-506 (yeast; human, UniProt P04386 768-881; Q92796 94-506).
T1 construct: also called SAP102
T1 sequence (looked up): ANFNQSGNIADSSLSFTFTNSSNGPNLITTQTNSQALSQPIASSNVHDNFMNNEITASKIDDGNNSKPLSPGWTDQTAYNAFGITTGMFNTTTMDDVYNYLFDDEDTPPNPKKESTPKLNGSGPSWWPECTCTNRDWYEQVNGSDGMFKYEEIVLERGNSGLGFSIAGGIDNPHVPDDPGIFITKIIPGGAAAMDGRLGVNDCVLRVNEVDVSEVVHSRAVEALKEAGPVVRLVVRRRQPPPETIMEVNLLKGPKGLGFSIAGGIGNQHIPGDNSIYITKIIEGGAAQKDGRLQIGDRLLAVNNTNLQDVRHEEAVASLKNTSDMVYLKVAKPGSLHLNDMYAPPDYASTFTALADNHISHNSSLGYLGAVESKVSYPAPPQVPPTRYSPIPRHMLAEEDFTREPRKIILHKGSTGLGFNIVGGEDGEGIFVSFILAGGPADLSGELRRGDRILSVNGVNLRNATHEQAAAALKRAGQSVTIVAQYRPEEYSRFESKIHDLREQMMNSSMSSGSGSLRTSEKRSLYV
In words: yeast two-hybrid. The source says: (§1) The principles and methods of the yeast two-hybrid systems have been described in detail (Bartel and Fields, 1997). The following is thus a description of the particular procedure that was used, which was applied to all proteins.
(§2) The cDNA encoding the bait protein was generated by PCR from brain cDNA. Gene-specific primers were synthesized with appropriate tails added at their 5′ ends to allow recombination into the vector pGBTQ. The tail for the forward primer was 5′-[…]-3′ (SEQ ID NO: 1) and the tail for the reverse primer was 5′-[…]-3′ (SEQ ID NO:2). […] The new construct was selected directly in the yeast J693 for its ability to drive tryptophane synthesis (genotype of this strain: Mat α, ade2, his3, leu2, trp1, URA3::GAL1-lacZ LYS2::GAL1-HIS3 gal4del gal80del cyhR2). In these yeast cells, the bait is produced as a C-terminal fusion protein with the DNA binding domain of the transcription factor Gal4 (amino acids 1 to 147). A total human brain (person) cDNA library cloned into the yeast expression vector pACT2 was purchased from Clontech (human brain […] cDNA, cat. # HL4004AH), transformed into the yeast strain J692 (genotype of this strain: Mat α, ade2, his3, leu2, trp1, URA3::GAL1-lacZ LYS2::GAL1-HIS3 gal4del gal80del cyhR2), and selected for the ability to drive leucine synthesis. In these yeast cells, each cDNA is expressed as a fusion protein with the transcription activation domain of the transcription factor Gal4 (amino acids 768 to 881) and a 9 amino acid hemagglutinin epitope tag. J693 cells […] expressing the bait were then mated with J692 cells […] expressing proteins from the brain library. The resulting diploid yeast cells expressing proteins interacting with the bait protein were selected for the ability to synthesize tryptophane, leucine, histidine, and β-galactosidase.

The target in test [2] is T2, transcription factor HTF4A amino acids 296-494 (yeast; human, UniProt P04386 768-881; Q99081 296-494).
T2 sequence (looked up): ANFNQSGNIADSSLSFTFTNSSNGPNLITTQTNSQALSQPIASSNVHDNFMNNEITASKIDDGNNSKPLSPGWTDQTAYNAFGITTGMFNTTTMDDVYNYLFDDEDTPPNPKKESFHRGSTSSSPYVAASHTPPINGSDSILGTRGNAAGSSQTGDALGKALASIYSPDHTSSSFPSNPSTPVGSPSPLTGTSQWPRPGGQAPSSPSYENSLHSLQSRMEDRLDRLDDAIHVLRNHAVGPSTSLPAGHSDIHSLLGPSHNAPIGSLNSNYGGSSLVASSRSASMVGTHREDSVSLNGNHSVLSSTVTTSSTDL
Briefly: yeast two-hybrid.
Description: as §1, §2

B1: bcr (break point cluster) amino acids 1206-1271, C-terminal bait (other, UniProt P04386 1-147, looked up)
chain: MKLLSSIEQACDICRLKKLKCSKEKPKCAKCLKNNWECRYSPKTKRSPLTRAHLTEVESRLERLEQLFLLIFPREDLDMILKMDSLQDIKALLTGLFVQDNVNKDAVTDRLASVETDMPLTLRQHRISATSSSEESSNKGQRQLTVSVFGPTLLRPSEKESKLPANPSQPITMTDSWSLEVMSQVQVLLYFLQLEAIPAPDSKRQSILFSTEV
Consider B1, for which the binding result in test [1] and in test [2] was “binds” each time.

Values taken from patent publication US20020115606A1 (MYRIAD GENETICS, published 2002).
